From US20150110792A1 (Biogen, published 2015)

T1: human TIM-1-Fc (extracellular domain of human TIM-1, residues 1-290, attached to the Fc portion of human IgG1) (human, UniProt Q96D42 21-290)
T1 construct: also called TIM-1-Ig; human TIM1-Ig; not shown: Fc portion of human IgG1
T1 sequence: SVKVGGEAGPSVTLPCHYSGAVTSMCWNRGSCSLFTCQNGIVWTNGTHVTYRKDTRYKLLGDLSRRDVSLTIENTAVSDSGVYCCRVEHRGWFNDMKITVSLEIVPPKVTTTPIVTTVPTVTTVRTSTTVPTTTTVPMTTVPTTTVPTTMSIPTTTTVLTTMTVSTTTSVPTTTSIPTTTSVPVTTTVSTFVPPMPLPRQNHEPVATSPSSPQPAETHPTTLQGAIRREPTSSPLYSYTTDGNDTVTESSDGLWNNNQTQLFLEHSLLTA

T2: cynomolgus monkey TIM-1-Fc (cynomolgus monkey TIM-1 extracellular domain expressed as an Fc fusion protein) (Cynomolgus monkey (Macaca fascicularis))
T2 construct: also called cyno.TIM1; not shown: Fc part
T2 chain: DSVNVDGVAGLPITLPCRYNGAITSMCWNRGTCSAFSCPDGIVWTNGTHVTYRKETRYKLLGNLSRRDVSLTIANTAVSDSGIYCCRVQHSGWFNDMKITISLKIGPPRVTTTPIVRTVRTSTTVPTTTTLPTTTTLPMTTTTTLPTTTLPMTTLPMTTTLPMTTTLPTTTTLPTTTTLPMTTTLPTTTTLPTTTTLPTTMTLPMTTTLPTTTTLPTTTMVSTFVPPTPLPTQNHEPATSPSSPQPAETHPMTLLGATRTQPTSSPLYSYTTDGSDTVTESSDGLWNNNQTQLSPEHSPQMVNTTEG

T3: human TIM-1 expressed on cells (human, UniProt Q96D42 21-364)
T3 construct: Full-length human TIM-1 on transfected (HEK 293T, 293E, JUN2 Jurkat) or constitutively expressing (769-P) cells; also called HAVCR1; KIM-1
T3 sequence: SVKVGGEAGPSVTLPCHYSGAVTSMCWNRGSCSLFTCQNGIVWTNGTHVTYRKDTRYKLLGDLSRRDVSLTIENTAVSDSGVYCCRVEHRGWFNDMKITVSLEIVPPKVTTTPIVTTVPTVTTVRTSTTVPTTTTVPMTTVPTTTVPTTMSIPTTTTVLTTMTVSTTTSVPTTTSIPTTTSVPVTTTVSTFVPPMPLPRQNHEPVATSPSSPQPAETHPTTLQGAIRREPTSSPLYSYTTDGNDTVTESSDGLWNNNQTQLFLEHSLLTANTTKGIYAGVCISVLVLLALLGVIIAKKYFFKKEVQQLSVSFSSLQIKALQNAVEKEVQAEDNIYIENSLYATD

T4: Cynomolgus monkey TIM-1 expressed on transfected 293E cells (Cynomolgus monkey (Macaca fascicularis), UniProt O46598 25-478 (Chlorocebus aethiops entry))
T4 construct: Full-length cDNA (pEAG2184) transfected into 293E cells; also called Cynomolgus TIM-1
T4 chain: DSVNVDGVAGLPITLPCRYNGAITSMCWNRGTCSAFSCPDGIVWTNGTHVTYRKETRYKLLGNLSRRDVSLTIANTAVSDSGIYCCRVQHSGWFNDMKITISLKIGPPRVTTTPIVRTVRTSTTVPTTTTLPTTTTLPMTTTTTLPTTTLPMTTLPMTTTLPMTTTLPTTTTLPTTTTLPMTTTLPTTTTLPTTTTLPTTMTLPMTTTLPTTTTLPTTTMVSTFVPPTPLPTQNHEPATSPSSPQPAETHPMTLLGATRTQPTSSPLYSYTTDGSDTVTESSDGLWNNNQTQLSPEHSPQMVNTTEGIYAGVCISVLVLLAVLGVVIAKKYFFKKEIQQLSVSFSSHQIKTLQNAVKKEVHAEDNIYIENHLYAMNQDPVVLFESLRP


Columns and labels:
[1] = biological target: T1, human TIM-1-Fc (extracellular domain of …); test: ELISA-2, plates coated with 0.2 µg/ml human TIM-1-Fc
Description: (§1) In the second assay, an ELISA format was used to measure the relative affinity of three anti-TIM-1 monoclonal antibodies for human TIM-1. Titration curves were derived for each antibody and EC50 values were calculated from the curves. Briefly, ELISA plates (Corning Costar) were coated with 0.2 μg/ml human TIM-1-Fc overnight at 4° C. and then blocked for 1 hour at 22° C. with PBS/0.5% casein. Plates were thoroughly washed with PBS/0.1% Tween-20. Anti-human TIM-1 monoclonal antibodies were added across a range of concentrations starting at 10 μg/ml and using 1:3 dilutions, all in PBS/0.5% casein, and allowed to incubate for 1 hour at 22° C. The plates were washed again, and then a 1:1000 dilution of HRP-conjugated goat anti-mouse IgG (H+L; Jackson Immunoresearch Laboratories) was added in PBS/0.5% casein for an additional hour at 22° C. After a final wash, the plates were developed using substrate solution mix (R&D Systems) and stopped using 2N H2SO4. Plates were read at 450 nm using a microplate reader and analyzed using SoftMax Pro (Molecular Devices). Relative EC50 values were determined from the binding curves.
(§2) The cynomolgus monkey TIM-1 extracellular domain was expressed as an Fc fusion protein, purified, and used in the ELISA format described above for binding monoclonal antibodies to the human TIM-1 protein. […]

[2] = biological target: T2, cynomolgus monkey TIM-1-Fc (cynomolgus …); test: ELISA-1, plates coated with 2 µg/ml cynomolgus monkey TIM-1-Fc
Description: as §1, §2

[3] = biological target: T3, human TIM-1 expressed on cells; test: flow cytometry on JUN2 cells (Jurkat stably expressing human TIM-1), PE anti-mouse IgG, MFI against µg/ml of mAb
Description: (§3) Three assays were used to assess the affinity of ARD5 for human TIM-1. In the first assay, ARD5 binding to cells expressing TIM-1 was measured by Flow Cytometry. Two cell lines were used. JUN2 cells are a stable human Jurkat TIM-1-expressing cell line (described in Binne et al. (2007) J. Immunol. 178: 4342-50). The human kidney cell line 769-P also constitutively expresses TIM-1. JUN2 cells and 769-P cells were cultured in RPMI/10% FBS. JUN2 cells grow in suspension; 769-P cells are adherent and were gently removed with Accutase (Invitrogen). Cells were resuspended in PBS/5% BSA and incubated with monoclonal antibodies for 1 hour on ice. Following several washes with PBS/5% BSA, the cells were resuspended in the same buffer containing PE-coupled donkey anti-mouse IgG secondary antibody (Jackson Immunoresearch). Following an additional wash in PBS/5% BSA and a final wash in PBS, cell were resuspended in 100 ul PBS and fixed in an equal volume of 2% paraformaldehyde. Monoclonal antibody binding was analyzed using a flow cytometer (FACScan).

[4] = biological target: T1, human TIM-1-Fc (extracellular domain of …); test: ELISA-1, plates coated with 2 µg/ml human TIM-1-Fc
Description: as §1, with “Briefly, ELISA plates (Corning Costar) were coated with 0.2 μg/ml human TIM-1-Fc overnight at 4° C. and then blocked for 1 hour at 22° C. with PBS/0.5% casein.” left out
The cynomolgus monkey TIM-1 extracellular domain was expressed as an Fc fusion protein, purified, and used in the ELISA format described above for binding monoclonal antibodies to the human TIM-1 protein. […] The resulting titration curves were used to derive a relative EC50 for anti-human TIM-1 monoclonal antibody binding to human TIM-1 and cynomolgus monkey TIM-1 (Table 2, ELISA-2).

[5] = biological target: T4, Cynomolgus monkey TIM-1 expressed on …; test: flow cytometry on 293E cells transfected with Cynomolgus monkey TIM-1 cDNA, gated on EGFP-positive cells, PE anti-mouse IgG
Description: In a second series of experiments, 293E cells transfected with human TIM-1 cDNA or Cynomolgus monkey TIM-1 cDNA were analyzed for anti-human TIM-1 monoclonal antibody binding by flow cytometry. The full-length human and cynomolgus monkey TIM1 cDNAs were engineered to remove extraneous 5′ and 3′ UTRs and to add an identical optimized Kozak sequence, then were subcloned into pNE001, a fully sequence-confirmed pUC-based EBV expression vector derived from the Invitrogen expression vector pCEP4, in which heterologous gene expression is controlled by a CMV-IE promoter and an SV40 polyadenylation signal, but lacking the EBNA gene and the hygromycin resistance gene. TIM-1 expression vectors (human: pEAG2182, and cynomolgus monkey: pEAG2184) were co-transfected into 293E cells at a 1:1 molar ratio with an EBV expression vector carrying an EGFP reporter (pEAG1458). Cells were transfected using Qiagen's Effectene reagent, following the manufacturer's recommended protocol. Cells were used in FACS at 2 days post-transfection, staining with a dilution titration series of murine anti-human TIM1 monoclonal antibodies, (detected with PE-conjugated goat anti-mouse IgG secondary antibody) and gating on green EGFP-positive living cells. […]

[6] = biological target: T2, cynomolgus monkey TIM-1-Fc (cynomolgus …); test: ELISA-2, plates coated with 0.2 µg/ml cynomolgus monkey TIM-1-Fc
Description: as §1, §2

[7] = biological target: T3, human TIM-1 expressed on cells; test: flow cytometry on 769-P cells (constitutively expressing human TIM-1), PE anti-mouse IgG, MFI against µg/ml of mAb
Description: as §3

[8] = biological target: T2, cynomolgus monkey TIM-1-Fc (cynomolgus …); test: SPR (Biacore), cynomolgus monkey TIM-1-Fc
[9] = biological target: T1, human TIM-1-Fc (extracellular domain of …); test: SPR (Biacore), human TIM-1-Fc
[10] = biological target: T1, human TIM-1-Fc (extracellular domain of …); test: ELISA, plates coated with human TIM-1-Fc
Description: as §1

[11] = biological target: T1, human TIM-1-Fc (extracellular domain of …); test: SPR (Biacore), monovalent binding to immobilized human TIM-1

Binder	EC50 [1] [µg/mL]	EC50 [2] [µg/mL]	EC50 (read off the curve) [3] [µg/mL]	EC50 [4] [µg/mL]	binding result [5]	EC50 [6] [µg/mL]	EC50 (read off the curve) [7] [µg/mL]	Kd [8] [nM]	Kd [9] [nM]	EC50 [10] [µg/mL]	relative EC50 against A6G2 and A3H1 (percent greater) [10] [%]	Kd [11] [nM]
monoclonal antibody ARD5 (antibody, mouse IgG1, kappa, V domains shown, Murine IgG1/kappa hybridoma antibody (ATCC PTA-12195); also called ARD5.12; muARD5) VH: QVQLQQSGAELVRPGTSVKVSCKASGYVFTNYWIEWIKQRPGQGLEWIGVMNPGSGETTYNEKFKGKATLTADKSSSTAYMQLSSLTSVDSAVYFCARDHDRDYYAMDYWGQGTSVTVSS VL: EIQMTQSPSSMSASLGDTITITCQATQDIFKNLNWYQQKPGKPPSLLIYYATELAEGVPSRFSGSGSGSDYSLTISNLESEDFAAYYCLQFFEFPFTFGSGTKLEMKR	0.043	0.002	~0.1	0.001	binds	0.013	~0.2	< 50	≤ 0.6	0.00078	80.5	–
FAb fragment of ARD5 (Fab, V domains shown, Fab purified from the ARD5 monoclonal antibody; also called FAb of ARD5; not shown: murine IgG1 CH1 and part of the hinge) VH: QVQLQQSGAELVRPGTSVKVSCKASGYVFTNYWIEWIKQRPGQGLEWIGVMNPGSGETTYNEKFKGKATLTADKSSSTAYMQLSSLTSVDSAVYFCARDHDRDYYAMDYWGQGTSVTVSS VL: EIQMTQSPSSMSASLGDTITITCQATQDIFKNLNWYQQKPGKPPSLLIYYATELAEGVPSRFSGSGSGSDYSLTISNLESEDFAAYYCLQFFEFPFTFGSGTKLEMKR	–	–	–	–	–	–	–	–	–	–	–	3
